Target: the molecule itself
Test: crystal structure; ERβ LBD-E2 complex at 5 mg/mL; sitting drop, 19 °C; 0.1 M Na-citrate pH 5.5, 10% PEG-4000, 10% isopropanol; no coactivator peptide; 2.5 Å; dimer in the asymmetric unit

B1: human estrogen receptor beta ligand-binding domain (residues 256-501) bound to 17β-estradiol (domain or fragment, UniProt Q92731 256-501, looked up)
chain: RELLLDALSPEQLVLTLLEAEPPHVLISRPSAPFTEASMMMSLTKLADKELVHMISWAKKIPGFVELSLFDQVRLLESCWMEVLMMGLMWRSIDHPGKLIFAPDLVLDRDEGKCVEGILEIFDMLLATTSRFRELKLQHKEYLCVKAMILLNSSMYPLVTATQDADSSRKLAHLLNAVTDALVWVIAKSGISSQQQSMRLANLLMLLSHVRHASNKGMEHLLNMKCKNVVPVYDLLLEMLNAHVLR
notes: The tag was removed with the SUMO protease Ulp1; also called ERβ LBD; hERβ LBD; source: E. coli BL21 (DE3)RIL, purified (NiNTA, Ulp1 cleavage, Superdex-75 SEC)
- stoichiometry N: 2

Source: publication PMC5471280, “An alternative conformation of ERβ bound to estradiol reveals H12 in a stable antagonist position” (Scientific Reports, 2017)
